Reference: US20210338656A1, “IMMUNOSTIMULATORY AGENTS IN COMBINATION WITH ANGIOGENESIS INHIBITORS” (Alkermes Pharma Ireland Limited, priority 2020, published 2021)

Tested on: gene expression in MC38 tumors
Test: RNA-Seq gene expression in MC38 tumors, Day 10
Assay type: in vivo, mouse
Protocol: On Day 10 spleens and tumors were collected and weighed from all animals in Groups 7 through 12 and weighed prior to processing. Tissues from four animals in each group were processed to single cell suspensions for flow cytometry analysis at CRL-NC (described below). Tissues from the remaining six animals in each group were preserved in RNAlater, stored at −80° C.
Tumors and spleens were dissected on the appropriate day of the study and were weighed and immediately placed in RNAlater Stabilizing Reagent to preserve the tissue and stored overnight at 4 deg C. The following day, the samples were removed from RNA later and snap frozen and placed at −80 deg C.
Unless otherwise indicated, everything was done on ice and the materials were prechilled on ice. The tissues were homogenized in TRIzol in Precellys tissue grinding tubes. After homogenization, the TRIzol solutions were transferred to 1.5 ml tubes and spun for 5 min at 12,000×g to eliminate the insoluble material. The TRIzol solutions were then transferred to Phasemaker tubes. Chloroform was added, the tubes were capped, and shaken vigorously for 15 seconds. The samples were then incubated at room temperature for 2-15 minutes and centrifuged at 12,000×g for 5 minutes. The upper, aqueous phase was then transferred to a new tube and an equal volume of 70% ethanol was added and it was vortexed. The liquid was then transferred to Qiagen RNeasy columns and centrifuged at 8000×g. DNAse was added to each tube to eliminate any residual DNA. The columns were then washed and eluted as directed by the kit. The RNA concentrations were determined using a Qubit.
Libraries were prepared for sequencing by using the Mouse Transcriptome Ion AmpliSeq Library Preparation on the Ion Chef System as directed by the manufacturer. Eight samples of purified RNA and 8 unique IonCode molecular barcodes were added to a 96 well plate and were prepared at a time. After the libraries were prepared, they were templated and loaded onto an Ion Torrent 540 chip using the Ion 540 Chef Kit from ThermoFisher. The 540 chips were then loaded into a Gene Studio S5 sequencer and sequenced.
Raw sequencing data was processed by Torrent Suite (v5.8.0) software that came with the Gene Studio sequencer (ThermoFisher). For each sample, this program summarized gene expression in a CHP file. The CHP files were then loaded into the Transcriptome Analysis Console (TAC) program (ThermoFisher).

[1] = T cell signaling gene, MC38 tumors Day 10 RNA-Seq, lucitanib 10 mg/kg po, SEQ ID NO. 2 3 mg/kg sc
[2] = Type I/II interferon pathway gene, MC38 tumors Day 10 RNA-Seq, lucitanib 10 mg/kg po, SEQ ID NO. 2 3 mg/kg sc
[3] = antigen presentation gene, MC38 tumors Day 10 RNA-Seq, lucitanib 10 mg/kg po, SEQ ID NO. 2 3 mg/kg sc

B1: SEQ ID NO: 2: mouse ortholog construct (murine surrogate) of the circularly permuted IL-2/IL-2Rα fusion protein of SEQ ID NO: 1 (protein)
chain: SKSFQLEDAENFISNIRVTVVKLKGSDNTFECQFDDESATVVDFLRRWIAFCQSIISTSPQGGSSSTQQQQQHLEQLLMDLQELLSRMENYRNLKLPRMLTFKFYLPKQATELKDLQCLEDELGPLRHVLDLTQGSGGGSELCLYDPPEVPNATFKALSYKNGTILNCECKRGFRRLKELVYMRCLGNSWSSNCQCTSNSHDKSRKQVTAQLEHQKEQQTTTDMQKPTQSMHQENLTGHCREPPPWKHEDSKRIYHFVEGQSVHYECIPGYKALQRGPAISICKMKCGKTGWTQPQLTCVDGSHHHHHH
modifications: Mouse cpIL-2IL-2R-alpha
Cd3e mean expression value relative to vehicle group [1]: 3.81
Cd4 mean expression value relative to vehicle group [1]: 1.46
Cd8a mean expression value relative to vehicle group [1]: 4.64
Cd8b1 mean expression value relative to vehicle group [1]: 8.03
Cd28 mean expression value relative to vehicle group [1]: 2.86
Cd247 mean expression value relative to vehicle group [1]: 3.95
Cd3d mean expression value relative to vehicle group [1]: 5.96
Ctla4 mean expression value relative to vehicle group [1]: 0.60
H2-Aa mean expression value relative to vehicle group [1]: 1.27
H2-Ab1 mean expression value relative to vehicle group [1]: 2.25
H2-Eb1 mean expression value relative to vehicle group [1]: 1.29
Icos mean expression value relative to vehicle group [1]: 1.69
Ifng mean expression value relative to vehicle group [1]: 2.06
Il2 mean expression value relative to vehicle group [1]: 0.31
Lck mean expression value relative to vehicle group [1]: 4.42
Lcp2 mean expression value relative to vehicle group [1]: 0.23
Nfatc2 mean expression value relative to vehicle group [1]: 0.67
Pdcd1 mean expression value relative to vehicle group [1]: 2.42
Ptpn22 mean expression value relative to vehicle group [1]: 2.19
Ptprc mean expression value relative to vehicle group [1]: 2.32
Zap70 mean expression value relative to vehicle group [1]: 2.63
B2m mean expression value relative to vehicle group [2]: 0.03
Bst2 mean expression value relative to vehicle group [2]: 0.08
Cd44 mean expression value relative to vehicle group [2]: −0.19
Ciita mean expression value relative to vehicle group [2]: 1.36
Fcgr1 mean expression value relative to vehicle group [2]: 1.12
Gm10499 mean expression value relative to vehicle group [2]: −0.02
H2-Aa mean expression value relative to vehicle group [2]: 1.27
H2-Ab1 mean expression value relative to vehicle group [2]: 2.25
H2-Eb1 mean expression value relative to vehicle group [2]: 1.29
H2-K1 mean expression value relative to vehicle group [2]: 0.04
H2-Q10 mean expression value relative to vehicle group [2]: −0.28
Icam1 mean expression value relative to vehicle group [2]: 0.88
Ifi35 mean expression value relative to vehicle group [2]: 0.38
Ifit2 mean expression value relative to vehicle group [2]: 0.54
Ifitm1 mean expression value relative to vehicle group [2]: −0.13
Ifna2 mean expression value relative to vehicle group [2]: 0
Ifnar1 mean expression value relative to vehicle group [2]: 0.35
Ifnar2 mean expression value relative to vehicle group [2]: 0.2
Ifnb1 mean expression value relative to vehicle group [2]: −0.16
Ifng mean expression value relative to vehicle group [2]: 2.06
Ifngr1 mean expression value relative to vehicle group [2]: 0.23
Irf1 mean expression value relative to vehicle group [2]: −0.01
Irf4 mean expression value relative to vehicle group [2]: 0.92
Irf5 mean expression value relative to vehicle group [2]: 0.43
Irf8 mean expression value relative to vehicle group [2]: 1.46
Mx1 mean expression value relative to vehicle group [2]: 0.6
Ncam1 mean expression value relative to vehicle group [2]: −0.2
Pml mean expression value relative to vehicle group [2]: 0.62
Ptpn6 mean expression value relative to vehicle group [2]: 0.36
Socs3 mean expression value relative to vehicle group [2]: 0.09
Tyk2 mean expression value relative to vehicle group [2]: 0.36
Vcam1 mean expression value relative to vehicle group [2]: 0.13
B2m mean expression value relative to vehicle group [3]: 0.03
Btk mean expression value relative to vehicle group [3]: 0.06
Cd14 mean expression value relative to vehicle group [3]: 0.51
Cd36 mean expression value relative to vehicle group [3]: −0.08
Cd74 mean expression value relative to vehicle group [3]: 1.14
Ctsc mean expression value relative to vehicle group [3]: 0.82
Ctss mean expression value relative to vehicle group [3]: 1.2
Cybb mean expression value relative to vehicle group [3]: 0.8
Fcgr1 mean expression value relative to vehicle group [3]: 1.12
H2-Aa mean expression value relative to vehicle group [3]: 1.27
H2-Ab1 mean expression value relative to vehicle group [3]: 2.25
H2-DMa mean expression value relative to vehicle group [3]: 1.16
H2-DMb2 mean expression value relative to vehicle group [3]: 0.65
H2-Ea-ps mean expression value relative to vehicle group [3]: 0
H2-Eb1 mean expression value relative to vehicle group [3]: 1.29
H2-K1 mean expression value relative to vehicle group [3]: 0.04
H2-Ob mean expression value relative to vehicle group [3]: 1.61
H2-Q10 mean expression value relative to vehicle group [3]: −0.28
Ly96 mean expression value relative to vehicle group [3]: 0.27
Ncf4 mean expression value relative to vehicle group [3]: 0.86
Psmb9 mean expression value relative to vehicle group [3]: 0.03
Tap1 mean expression value relative to vehicle group [3]: 0.12
Tlr1 mean expression value relative to vehicle group [3]: 0.62
Tlr2 mean expression value relative to vehicle group [3]: 0.36
Tlr4 mean expression value relative to vehicle group [3]: 0.21
expression of genes associated with cytotoxic immune cell function and T cell activation (tumors): Increased expression
